Laboratory results taken from article PMC5558740, “Absence of CX3CR1 impairs the internalization of Tau by microglia” (Molecular Neurodegeneration, 2017).

Key:
[1] = target: T1, recombinant human Tau isoform containing 2 N-terminal inserts and 4 microtubule binding repeats (Tau42) (human, UniProt P10636-8 1-441); assay: affinity chromatography; CX3CR1 peptide coupled to CNBr-activated Sepharose 4B; protein (1 mg/ml) loaded in buffer A (0.1 M Mes pH 6.4, 0.5 mM MgCl2, 2 mM EGTA); bound protein eluted with 0.5 M NaCl in buffer A; fractions read by dot immunoblot; conditions: both partners purified
T1 construct: also called purified Tau; source: recombinant, isolated as described previously [25], purified

[2] = target: T2, Tau42 phosphorylated by GSK-3β (phospho-Tau) (human, UniProt P10636-8 1-441, phosphorylated by GSK-3β; phosphoserine at 396 (detected with anti-p-S396); other sites not stated); assay: as above; conditions: both partners purified
T2 construct: the Cy5-labelled form (phospho-Tau-Cy5) was used for the uptake test on microglia; also called Tau phosphorylated by GSK-3β; source: recombinant Tau42 phosphorylated in vitro by GSK-3β (Sigma), heated 5 min at 100 °C, supernatant collected
T2 sequence (P10636 other isoform, or with tags, fused parts or gaps): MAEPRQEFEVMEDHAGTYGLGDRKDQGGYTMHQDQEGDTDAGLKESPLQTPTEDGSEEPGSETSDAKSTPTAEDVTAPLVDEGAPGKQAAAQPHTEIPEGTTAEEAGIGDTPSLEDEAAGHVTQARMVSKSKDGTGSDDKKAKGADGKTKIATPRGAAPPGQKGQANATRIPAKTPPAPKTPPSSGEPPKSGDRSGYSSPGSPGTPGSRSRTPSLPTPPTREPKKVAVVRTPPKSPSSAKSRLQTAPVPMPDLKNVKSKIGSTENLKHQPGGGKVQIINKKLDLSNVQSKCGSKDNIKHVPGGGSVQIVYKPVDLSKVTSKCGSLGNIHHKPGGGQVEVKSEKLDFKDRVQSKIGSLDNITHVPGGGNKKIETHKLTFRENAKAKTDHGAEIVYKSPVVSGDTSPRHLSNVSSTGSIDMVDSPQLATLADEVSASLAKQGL

T1 sequence (P10636 other isoform, or with tags, fused parts or gaps): as above

- binding result [1]: binds
- binding result [2]: binds
B1: synthetic CX3CR1 peptide (aa 2-21) containing the binding region to CX3CL1 (peptide)
peptide: DQFPESVTENFEYDDLAEAC
notes: also called synthetic receptor CX3CR1; source: synthetic peptide, bought: Abyntek
